This note sets out measurements from publication PMC9130146, “Alteration in DNA-binding affinity of Wilms tumor 1 protein due to WT1 genetic variants associated with steroid - resistant nephrotic syndrome in children”.

Assay in all cases: MST; 50 mM Na2HPO4.12H2O, 150 mM NaCl, 0.005% Tween; pH not stated; room temperature; 80 nM DNA; protein from 1-4 mM (highest) downward
Data set [1] concerns the target WT1 ZF2-4 p.Arg463Ter (Homo sapiens (cDNA from A549 cells), UniProt P19544-2 334-372). As to conditions: protein: recombinant; tags: no tag stated; label: 5' Cyanine5; single strand.
Data set [2] addresses WT1 ZF2-4 p.His450Arg (Homo sapiens (cDNA from A549 cells), UniProt P19544-2 334-423, H360R). As to conditions: protein: recombinant; tags: no tag stated; label: 5' Cyanine5; single strand.
Data set [3] concerns the target WT1 ZF2-4 p.Asp469Asn (Homo sapiens (cDNA from A549 cells), UniProt P19544-2 334-423, D379N). As to conditions: protein: recombinant; tags: no tag stated; label: 5' Cyanine5; single strand.
Data set [4] has as its target WT1 ZF2-4 p.Arg467Trp (Homo sapiens (cDNA from A549 cells), UniProt P19544-2 334-423, R377W). The following applies: protein: recombinant; tags: no tag stated; label: 5' Cyanine5; single strand.
For data set [5], the target named is WT1 ZF2-4 p.Gln447Pro (Homo sapiens (cDNA from A549 cells), UniProt P19544-2 334-423, Q357P). The following applies: protein: recombinant; tags: no tag stated; label: 5' Cyanine5; single strand.
In data set [6] the target is WT1 ZF2-4 wild type (-KTS) (Homo sapiens (cDNA from A549 cells), UniProt P19544-2 334-423). The following applies: protein: recombinant; tags: no tag stated; pET22b, reverse primer has a stop codon; label: 5' Cyanine5; single strand.
Data set [7] concerns the target WT1 ZF2-4 p.His474Arg (Homo sapiens (cDNA from A549 cells), UniProt P19544-2 334-423, H384R). As to conditions: protein: recombinant; tags: no tag stated; label: 5' Cyanine5; single strand.
Data set [8] has as its target WT1 ZF2-4 p.Arg439Pro (Homo sapiens (cDNA from A549 cells), UniProt P19544-2 334-423, R349P). The following applies: protein: recombinant; tags: no tag stated; label: 5' Cyanine5; single strand.
Data set [9] addresses WT1 ZF2-4 p.Cys433Tyr (Homo sapiens (cDNA from A549 cells), UniProt P19544-2 334-423, C343Y). As to conditions: protein: recombinant; tags: no tag stated; label: 5' Cyanine5; single strand.

Sequence of WT1 ZF2-4 wild type (-KTS) (P19544 other isoform, or with tags, fused parts or gaps): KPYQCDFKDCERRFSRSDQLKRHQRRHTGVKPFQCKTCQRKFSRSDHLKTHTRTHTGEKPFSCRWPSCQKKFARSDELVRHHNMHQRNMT
Sequence of WT1 ZF2-4 p.Arg439Pro (P19544 other isoform, or with tags, fused parts or gaps R349P | p.R439P p.R439P): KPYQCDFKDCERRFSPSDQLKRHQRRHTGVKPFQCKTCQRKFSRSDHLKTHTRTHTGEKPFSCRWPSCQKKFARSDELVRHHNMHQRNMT
Sequence of WT1 ZF2-4 p.Cys433Tyr (P19544 other isoform, or with tags, fused parts or gaps C343Y | p.C433Y p.C433Y): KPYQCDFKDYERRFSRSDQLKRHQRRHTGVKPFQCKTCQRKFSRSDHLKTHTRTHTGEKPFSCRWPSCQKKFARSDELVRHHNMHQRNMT
Sequence of WT1 ZF2-4 p.His474Arg (P19544 other isoform, or with tags, fused parts or gaps H384R | p.H474R p.H474R): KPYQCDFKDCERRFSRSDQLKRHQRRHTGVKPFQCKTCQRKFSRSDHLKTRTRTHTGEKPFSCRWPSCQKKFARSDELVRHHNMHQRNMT
Sequence of WT1 ZF2-4 p.His450Arg (P19544 other isoform, or with tags, fused parts or gaps H360R | p.H450R p.H450R): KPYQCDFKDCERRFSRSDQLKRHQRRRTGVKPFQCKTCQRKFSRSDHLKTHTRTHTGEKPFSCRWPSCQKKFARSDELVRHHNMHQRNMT
Sequence of WT1 ZF2-4 p.Gln447Pro (P19544 other isoform, or with tags, fused parts or gaps Q357P | p.Q447P p.Q447P): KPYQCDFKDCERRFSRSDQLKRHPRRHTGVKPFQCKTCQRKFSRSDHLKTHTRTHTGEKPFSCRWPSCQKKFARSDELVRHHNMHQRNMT
Sequence of WT1 ZF2-4 p.Arg467Trp (P19544 other isoform, or with tags, fused parts or gaps R377W | p.R467W p.R467W): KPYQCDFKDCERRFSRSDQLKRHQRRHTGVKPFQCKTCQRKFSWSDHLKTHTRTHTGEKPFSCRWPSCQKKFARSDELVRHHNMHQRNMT
Sequence of WT1 ZF2-4 p.Arg463Ter (P19544 351-389): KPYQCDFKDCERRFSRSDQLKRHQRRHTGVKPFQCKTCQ
Sequence of WT1 ZF2-4 p.Asp469Asn (P19544 other isoform, or with tags, fused parts or gaps D379N | p.D469N p.D469N): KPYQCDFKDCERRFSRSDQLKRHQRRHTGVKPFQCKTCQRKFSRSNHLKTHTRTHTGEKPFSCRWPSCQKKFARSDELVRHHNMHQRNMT

B1: EGR1 DNA motif, Cy5 oligo (ssDNA)
DNA: GTGGAGGCGGCGGGGGCGGCAGCAACAG
Take B1: the Kd in data set [1] amounted to 324 ± 13.3 µM; in data set [2] it was 878 ± 164 µM; in data set [3] it was 12.1 ± 1.7 µM; in [4] it was 94.6 ± 9.8 µM; in [5] it was 24.9 ± 4.2 µM; in [6] it was 111 ± 7.4 µM. Besides, the Kd in [7] came to 48.4 ± 6 µM; in [8], 319 ± 72.7 µM; in data set [9], 89.4 ± 7 µM.

By Kd is commonly meant the constant that tells how readily two partners part at equilibrium.
